{"source": "patent US11278600B2", "about": "“Human alpha-galactosidase variants” (Codexis, Inc., priority 2014, dated 2022)", "molecules": {"B1": {"name": "565 (protein)", "chain": "LDNGLARTPTMGWLHWERFMCNLDCQEEPDSCISEKLFMEMAERMVSEGWKDAGYEYLCIDDCWMAPQRDSEGRLQADPQRFPHGIRQLANHVHSKGLKLGIYADVGNKTCAGFPGSFGYYDIDAQTFADWGVDLLKFDGCYCDSLENLADGYKHMSLALNRTGRSIVYSCEWPLYMWPFQKPNYTEIRQYCNHWRNFADIDDSWASIKSILDWTSRNQERIVDVAGPGGWNDPDMLVIGNFGLSWDQQVTQMALWAIMAAPLFMSNDLRHISPQAKALLQDKDVIAINQDPLGKQGYQLRKGDNFEVWERPLSGDAWAVAIINRQEIGGPRSYTIPVASLGKGVACEPACFITQLLPVKRQLGFYNWTSRLKSHINPTGTVLLQLENTMQMSLKDLL", "modifications": "Synthetic Polypeptide sequence of Variant No. 565 of mature Human GLA"}, "B2": {"name": "566 (protein)", "chain": "B1 chain with E348M", "modifications": "Synthetic Polypeptide sequence of Variant No. 566 of mature Human GLA"}, "B3": {"name": "567 (protein)", "chain": "B1 chain with E348Q", "modifications": "Synthetic Polypeptide sequence of Variant No. 567 of mature Human GLA"}, "B4": {"name": "568 (protein)", "chain": "B1 chain with E348R", "modifications": "Synthetic Polypeptide sequence of Variant No. 568 of mature Human GLA"}, "B5": {"name": "569 (protein)", "chain": "B1 chain with E348W", "modifications": "Synthetic Polypeptide sequence of Variant No. 569 of mature Human GLA"}, "B6": {"name": "570 (protein)", "chain": "B1 chain with E348N, T354S", "modifications": "Synthetic Polypeptide sequence of Variant No. 570 of mature Human GLA"}}, "note": "Substitutions are numbered along the chain they refer to."}
{"experiment": "HTP-analysis of supernatants pretreated with acid (MUGal hydrolysis)", "assay_type": "biochemical", "details": "activity of the variant/activity of Rd3BB (SEQ ID NO: 13); challenge at pH 3.7", "method_in_brief": "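Fluorescence of MUGal hydrolysis (Ex. 355 nm, Em. 448 nm) is read after sodium carbonate quench. The enzyme source is INVSc1 yeast culture supernatant, first exposed to pH 3.3-4.3 McIlvaine buffer at 37° C. for 1-3 h, then reacted at pH 4.8 for 30-180 minutes.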"}
{"molecule": "B1", "Relative Activity of GLA Variants After Challenge at pH 3.7": "+ (+ = 1.5 to 5 relative activity over Rd3BB (SEQ ID NO: 13))"}
{"molecule": "B2", "Relative Activity of GLA Variants After Challenge at pH 3.7": "+ (+ = 1.5 to 5 relative activity over Rd3BB (SEQ ID NO: 13))"}
{"molecule": "B3", "Relative Activity of GLA Variants After Challenge at pH 3.7": "+ (+ = 1.5 to 5 relative activity over Rd3BB (SEQ ID NO: 13))"}
{"molecule": "B4", "Relative Activity of GLA Variants After Challenge at pH 3.7": "+ (+ = 1.5 to 5 relative activity over Rd3BB (SEQ ID NO: 13))"}
{"molecule": "B5", "Relative Activity of GLA Variants After Challenge at pH 3.7": "+ (+ = 1.5 to 5 relative activity over Rd3BB (SEQ ID NO: 13))"}
{"molecule": "B6", "Relative Activity of GLA Variants After Challenge at pH 3.7": "+ (+ = 1.5 to 5 relative activity over Rd3BB (SEQ ID NO: 13))"}
{"experiment": "HTP-analysis of yeast culture supernatants, no challenge (MUGal hydrolysis)", "assay_type": "biochemical", "details": "activity of the variant/activity of Rd3BB (SEQ ID NO: 13)", "method_in_brief": "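Activity read as 4-methylumbelliferyl α-D-galactopyranoside hydrolysis: fluorescence (355/448 nm) after sodium carbonate stop, following 30-180 min at 37° C with 2 mM MUGal stock at pH 4.6–4.8. Enzyme source is unchallenged culture supernatant of INVSc1 yeast expressing GLA variants, grown 66-84 h at 30° C.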"}
{"molecule": "B1", "Relative Activity of GLA Variants After No Challenge (NC)": "+ (+ = 1.5 to 5 relative activity over Rd3BB (SEQ ID NO: 13))"}
{"molecule": "B2", "Relative Activity of GLA Variants After No Challenge (NC)": "+ (+ = 1.5 to 5 relative activity over Rd3BB (SEQ ID NO: 13))"}
{"molecule": "B3", "Relative Activity of GLA Variants After No Challenge (NC)": "+ (+ = 1.5 to 5 relative activity over Rd3BB (SEQ ID NO: 13))"}
{"molecule": "B4", "Relative Activity of GLA Variants After No Challenge (NC)": "+ (+ = 1.5 to 5 relative activity over Rd3BB (SEQ ID NO: 13))"}
{"molecule": "B5", "Relative Activity of GLA Variants After No Challenge (NC)": "+ (+ = 1.5 to 5 relative activity over Rd3BB (SEQ ID NO: 13))"}
{"molecule": "B6", "Relative Activity of GLA Variants After No Challenge (NC)": "+ (+ = 1.5 to 5 relative activity over Rd3BB (SEQ ID NO: 13))"}
{"experiment": "HTP-analysis of supernatants pretreated with base (MUGal hydrolysis)", "assay_type": "biochemical", "details": "activity of the variant/activity of Rd3BB (SEQ ID NO: 13); challenge at pH 9.7", "method_in_brief": "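Supernatants from INVSc1 yeast expressing GLA variants (SD-Ura, 66-84 h, 30° C) were mixed with McIlvaine buffer pH 7.0-8.2 or 200 mM sodium bicarbonate pH 9.1-9.7 and held 1-18 h at 37° C. Residual activity was then measured on MUGal at pH 4.8/4.3, 37° C, 30-180 min, by fluorescence (Ex 355/Em 448 nm).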"}
{"molecule": "B1", "Relative Activity of GLA Variants After Challenge at pH 9.7": "++ (++ = >5 to 10 relative activity over Rd3BB (SEQ ID NO: 13))"}
{"molecule": "B2", "Relative Activity of GLA Variants After Challenge at pH 9.7": "++ (++ = >5 to 10 relative activity over Rd3BB (SEQ ID NO: 13))"}
{"molecule": "B3", "Relative Activity of GLA Variants After Challenge at pH 9.7": "++ (++ = >5 to 10 relative activity over Rd3BB (SEQ ID NO: 13))"}
{"molecule": "B4", "Relative Activity of GLA Variants After Challenge at pH 9.7": "++ (++ = >5 to 10 relative activity over Rd3BB (SEQ ID NO: 13))"}
{"molecule": "B5", "Relative Activity of GLA Variants After Challenge at pH 9.7": "++ (++ = >5 to 10 relative activity over Rd3BB (SEQ ID NO: 13))"}
{"molecule": "B6", "Relative Activity of GLA Variants After Challenge at pH 9.7": "++ (++ = >5 to 10 relative activity over Rd3BB (SEQ ID NO: 13))"}
